Columns and labels:
[1] = molecular target: gp41 583-618 peptide, oxidized form (Cys598-Cys604 disulfide) (HIV-1 (clade B, strain BaL)); assay: ITC
[2] = molecular target: HIV-1 BaL envelope glycoprotein (Env, gp120/gp41) on AT-2-inactivated virions (HIV-1 (clade B, strain BaL)); assay: fluorescence correlation spectroscopy (FCS); Alexa 647 labelled mAb (5 μg/ml) incubated with 10 μg/ml of free AT-2-inactivated HIV-1 BaL virions for 90 minutes at 37 °C; in solution
mAb F240 [3] = assay: Isothermal Titration Calorimetry (ITC) of F240 with gp41 peptides; format: binding; conditions: 25 °C, 1X PBS pH 7.4, F240 111 μM in syringe, peptide 11 μM in cell, single-site model
Protocol: Sensorgrams were obtained at room temperature for mAb F240 immobilized on a Protein A chip with 0–200 nM concentrations of gp41 peptide passed over the chip. […] Standard deviations of ka, kd and KD for two experiments are shown. […] The binding isotherms were fitted to a one-site binding model using Origin for ITC version 7.0383 (MicroCal). The fitting yields the stoichiometry (N), the binding constant (KD), and the enthalpy (ΔH) of the binding reaction.
The ITC experiments were performed using an ITC200 system (Micro-Cal) as previously described by Bradshaw et al.[61], at 25 °C in a 1X PBS buffer pH 7.4. F240 was dialyzed against this buffer overnight before the experiment. The peptides were dissolved in the final dialysis buffer. […] Titrations were performed at 25 °C with 17 injections of 2.42 μl aliquots, with 210–240 second intervals between injections. Heats of dilutions were measured and subtracted from each data set. Data were corrected for the heat of dilution and fitted using a nonlinear least-squares routine using a single-site binding model with Origin for ITC version 7.0383 (MicroCal).

[4] = system: EGFP-CEM-NKr-CCR5-SNAP cells sensitized with AT-2–inactivated HIV-1 BaL; assay: RFADCC, virion bound assay; format: cell-based; conditions: curves normalized for plateau cytotoxicity values using C11 (Fig. 5D); two independent experiments in duplicate
Description: (§1) EGFP-CEM-NKr-CCR5-SNAP cells sensitized with AT-2–inactivated HIV-1 BaL were (C) stained for antibody binding and (D) ADCC using the modified rapid fluorometric antibody-mediated cytotoxicity assay (RFADCC)[35]. Cluster A CD4i antibodies A32, N5-i5, C11 and Synagis were used as controls. The plot represents a mean of two independent experiments normalized to the average A32 values with error bars showing the range between experiments.
(§2) In brief, EGFP-CEM-NKr-CCR5-SNAP target cells were first stained with the SNAP-Surface Alexa Fluor 647 dye, washed twice and spinoculated with HIV-1 BaL AT-2 inactivated virus at 2000 RPM for 2 h at 12 °C. Subsequently, AT-2 BaLsensitized double-stained targets were washed twice with cold R10 medium and then subjected to testing for antibody binding (detected with PE-labeled mouse anti-human IgG secondary antibody, BD Bioscence cat. 555787) and RFADCC assay, following the previously described protocol. Samples were collected on a BD Fortessa Special Order instrument (BD Biosciences) and analyzed using FlowJo software (Tree Star, Ashland, OR). The HIV-1BaL AT-2 inactivated virus was generously provided by Dr. Jeff Lifson, NCI, Frederick. The ADCC data represent the typical results obtained in two independent experiments done in duplicate and the bars indicate the range of the values of cytotoxicity.

[5] = molecular target: monoclonal antibody F240 (IgG) (human (isolated from an HIV infected individual)); assay: SPR
mAb F240 [6] = assay: Surface Plasmon Resonance (SPR) of gp41 peptide on captured F240 IgG; format: binding; conditions: reduced vs oxidized peptide
Protocol: Sensorgrams were obtained at room temperature for mAb F240 immobilized on a Protein A chip with 0–200 nM concentrations of gp41 peptide passed over the chip. […] Standard deviations of ka, kd and KD for two experiments are shown.
The binding affinity and kinetics of F240 for gp41_583–618 peptide and gp41_583–618 peptide pretreated to reduce C^598-C^604 disulfide bond was assessed by Surface Plasmon Resonance on a Biacore T-100 (GE Healthcare) at 25 °C. The reduced gp41_583–618 was generated by treating the oxidized form of the same peptide with 0.05 M of TCEP. Protein A was first immobilized onto the second of the two flow cells on a CM5 chip to ~3000 response units (RU) and the first flow cell blocked with a standard amine coupling protocol (GE Healthcare). F240 IgG to be evaluated was then captured onto the second flow cell by flowing a 5–10 nM solution of mAb at 10 μl/min flow rate for 30 seconds. […] Varying concentrations (0–200 nM) of the oxidized and reduced forms of the peptide were then passed over both flow cells at a flow rate of 30 μl/min for 200 seconds and allowed to dissociate by passing buffer over both cells at the same flow rate for 800 seconds. The cells were regenerated with a 30 second injection of 0.1 M glycine pH 3.0 with a flow rate of 100 μl/min and the antibody reloaded onto the second flow cell for each peptide concentration. […]

[7] = molecular target: T1, gp41 583-618 peptide, oxidized form (Cys598-Cys604 disulfide) (HIV-1 (clade B, strain BaL), disulfide bond between Cys598 and Cys604 (oxidized peptide)); assay: SPR
T1 peptide: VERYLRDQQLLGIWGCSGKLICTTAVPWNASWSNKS

[8] = molecular target: T2, gp41 583-618 peptide, reduced form (pretreated with TCEP) (HIV-1 (clade B, strain BaL)); assay: SPR; peptide pretreated with TCEP
T2 peptide: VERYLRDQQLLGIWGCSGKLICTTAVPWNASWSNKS

[9] = molecular target: T2, gp41 583-618 peptide, reduced form …; assay: SPR; peptide pretreated with TCEP
[10] = molecular target: T1, gp41 583-618 peptide, oxidized form …; assay: SPR
[11] = system: EGFP-CEM-NKr-CCR5-SNAP cells infected with BaL infectious molecular clone; assay: Cell-surface staining of IMC BaL infected EGFP-CEM-NKr-CCR5-SNAP cells; format: cell-based, HIV-1 BaL
Protocol: For BaL-infected cells two gates were delineated: p24+/CD4− and p24+low/CD4+; and one for Mock p24−/CD4+. The plot represents a mean of two independent experiments normalized to the average A32 values with error bars showing the range between experiments.
EGFP-CEM-NKr-CCR5-SNAP cells were spinoculated for 2 hr at 2000 RPM at 12 °C in 96-well U-bottom plate (5 × 10^5 cells/well) with 240 ng of IMC BaL virus (control cells were incubated without virus), as measured by HIV-1 p24 antigen capture ELISA. Afterward, the viral inoculum was diluted 1:2 in R10 medium containing G418 1.5 mg/ml, and cells and virus were placed into one well of a 12-well flat-bottom plate. The cells were then cultured adding fresh medium every 2 days. […] After a wash, cells were then fixed and permeabilized using the Cytofix/Cytoperm Kit (BD-PharMingen, San Diego, Calif.) for 20 min at 4 °C. Subsequently, permeabilized cells were washed once with the buffer provided by the manufacturer, resuspended and stained for 30 min at RT with 5 μl (PE)-conjugated mouse anti-p24 mAb (KC57-RD1; Beckman Coulter, Inc.). After two additional washes, HIV-1- or mock were fixed in PFA 2% analyzed with an LSRII Fortessa flow cytometer (BDBiosciences) and data analysis was performed with FlowJo software (Tree Star,Inc., San Carlos, Calif.). The plot represents a mean of two independent experiments normalized to the average A32 values with error bars showing the range between experiments.

[12] = system: EGFP-CEM-NKr-CCR5-SNAP cells sensitized with AT-2–inactivated HIV-1 BaL; assay: Antibody binding (staining) to virion-sensitized cells, virion bound assay; format: cell-based; conditions: Fig. 5C; PE-labeled anti-human IgG secondary antibody; mean of two independent experiments normalized to A32
Description: as §1, §2

monoclonal antibody F240 (IgG)
Ka [1]: 2.95e+07 M⁻¹ | Kd [1]: 0.034 µM | percent of binding [2]: 40%

VERYLRDQQL[10] LGIWGCSGKL[20] ICTTAVPWNA[30] SWSNKS (disulfide) [gp41_583–618]
binding constant KB (mAb F240 [3]): 2.95e+07 M⁻¹ | Kd (mAb F240 [3]; read-out: dissociation constant KD): 0.034 µM

Synagis: Synagis (MedImmune), control mAb [reference compound]
AUC (Area Under Curve), ADCC [4]: 18.2 cytotoxicity/μg/ml

gp41 583-618 peptide, reduced form (pretreated with TCEP)
fold lower affinity than the oxidized peptide [5]: 14 fold

VERYLRDQQL[10] LGIWGCSGKL[20] ICTTAVPWNA[30] SWSNKS [reduced gp41_583–618, gp41_583–618 pretreated with TCEP to reduce the C598-C604 disulfide bond]
lower affinity as compared to its oxidized form (mAb F240 [6]): approximately 14 fold

B1: monoclonal antibody F240 (IgG) (antibody, V domains shown)
VH: QVQLVQSGGGVVKPGASSRLSCAASGFTFTDYYMSWIRQAPGKGLEWVAYITKDGSEKKYADSLQHRFAVSRDNANNLVFLQLNTVEDDDTGVYYCARDDGYYDRSGYYGVFDLWGQGIRVTVSS
VL: EFLLTQSPDSLAVTLGETATITCRSSRNILHSLNNKNYLAWYQQRPGQAPKLLVIWASMRVSGVADRFSGSGSGTDFALTISSLQPEDAAVYYCQHYYTTHRTFGQGTRVEIR
modifications: Alexa Fluor 647 on primary amines (only in the FCS experiments and in the staining of IMC BaL-infected cells) | Alexa Fluor 647 on primary amines (only in the FCS experiments and in the staining of IMC BaL-infected cells)
Kd [7]: 0.0044 µM | koff [8]: 0.0028 s⁻¹ | Kd [9]: 0.06 µM | koff [10]: 0.00083 s⁻¹

B2: N5-i5: Cluster A CD4i antibody used as control (antibody, V domains shown)
VH: EVQLVESGGGLVQPGGSLRLSCAASGFTFSTYAMSWVRQAPGKGLEWVSSINNSGRNTFSADSVKGRFTISRDNSKNTLFLVMNSLRAEDTAVYYCAKDLRLGGGSDYWGQGTLVTVSS
VL: QSALTQPASVSGSPGQSITISCTGTSSDVGSYNFVSWYQQHPGKAPKLMIYEVSERPSGISNRFSGSKSGNTASLTISGLQAEDEADYYCSSYAGSTTFRVFGGGTKLTVR
binding to mock-infected cells ([11]; mock p24−/CD4+ population): did not recognize | binding to productively infected cells ([11]; p24+/CD4− population, 5 days post-infection): did not recognize | binding to CD4-preserving cells with virus ([11]; p24+low/CD4+ population, 5 days post-infection): very effectively stained | recognition (binding) of virion-sensitized cells, in words [12]: Lower than reported in ref. [35] | AUC (Area Under Curve), ADCC [4]: 374.8 cytotoxicity/μg/ml

— PMC5101508 (Scientific Reports, 2016)
